Test results from patent publication US20110021362A1, “AGENTS FOR STIMULATING ACTIVITY OF METHYL MODIFYING ENZYMES AND METHODS OF USE THEREOF” (CONSTELLATION PHARMACEUTICALS, priority 2009, published 2011).

Assays:
[1] = molecular target: recombinant Polycomb Repressive Complex 2 (rPRC2) complex, including EZH2, EED, SUZ12, RBAP46, and RBAP48 subunits (human) (UniProt Q15910); assay: cell-based or functional assay
rPRC2 = rPRC2 (Homo sapiens, UniProt O75530+Q15910); assay: rPRC2 methylase stimulation assay (3H-SAM, FLASHplate/TopCount); type: biochemical; conditions: FIG. 5, histone peptides ~1.86 μM, oligonucleosomes 14.95 nM, 45 min at 30° C.
rPRC2, sequence (Q15910 1-751 isoform Q15910-2): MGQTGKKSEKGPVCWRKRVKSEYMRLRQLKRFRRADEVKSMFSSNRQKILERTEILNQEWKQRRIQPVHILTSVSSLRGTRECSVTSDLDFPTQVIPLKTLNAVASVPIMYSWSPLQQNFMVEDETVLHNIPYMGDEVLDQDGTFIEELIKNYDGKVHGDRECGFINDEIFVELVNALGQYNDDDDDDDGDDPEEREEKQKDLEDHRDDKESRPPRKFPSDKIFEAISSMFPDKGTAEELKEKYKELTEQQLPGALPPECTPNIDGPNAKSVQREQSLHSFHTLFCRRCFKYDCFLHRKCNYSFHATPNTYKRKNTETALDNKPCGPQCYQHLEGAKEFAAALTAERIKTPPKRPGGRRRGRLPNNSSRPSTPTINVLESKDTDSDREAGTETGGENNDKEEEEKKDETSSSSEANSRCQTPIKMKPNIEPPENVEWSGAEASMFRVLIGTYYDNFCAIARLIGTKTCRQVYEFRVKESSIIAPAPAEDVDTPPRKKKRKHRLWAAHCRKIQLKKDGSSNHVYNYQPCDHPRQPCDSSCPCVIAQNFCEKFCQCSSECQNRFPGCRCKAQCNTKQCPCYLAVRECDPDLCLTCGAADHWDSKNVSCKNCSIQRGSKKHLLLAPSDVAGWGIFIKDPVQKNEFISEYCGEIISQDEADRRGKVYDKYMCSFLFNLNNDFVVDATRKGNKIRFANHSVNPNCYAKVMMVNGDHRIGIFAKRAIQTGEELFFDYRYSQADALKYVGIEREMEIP
rPRC2, sequence (O75530 whole entry): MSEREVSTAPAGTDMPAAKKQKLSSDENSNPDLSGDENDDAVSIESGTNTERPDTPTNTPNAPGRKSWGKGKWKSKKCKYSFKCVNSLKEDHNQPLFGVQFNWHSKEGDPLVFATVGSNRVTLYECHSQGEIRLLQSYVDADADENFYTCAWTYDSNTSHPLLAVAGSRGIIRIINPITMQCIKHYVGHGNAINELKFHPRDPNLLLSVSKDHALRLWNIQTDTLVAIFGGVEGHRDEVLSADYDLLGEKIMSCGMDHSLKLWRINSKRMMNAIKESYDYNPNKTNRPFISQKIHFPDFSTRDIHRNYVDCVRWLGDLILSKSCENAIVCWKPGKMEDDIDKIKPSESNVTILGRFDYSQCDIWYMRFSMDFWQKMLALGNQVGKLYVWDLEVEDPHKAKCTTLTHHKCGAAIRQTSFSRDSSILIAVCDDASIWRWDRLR
rPRC2, sequence (Q15022 whole entry partner): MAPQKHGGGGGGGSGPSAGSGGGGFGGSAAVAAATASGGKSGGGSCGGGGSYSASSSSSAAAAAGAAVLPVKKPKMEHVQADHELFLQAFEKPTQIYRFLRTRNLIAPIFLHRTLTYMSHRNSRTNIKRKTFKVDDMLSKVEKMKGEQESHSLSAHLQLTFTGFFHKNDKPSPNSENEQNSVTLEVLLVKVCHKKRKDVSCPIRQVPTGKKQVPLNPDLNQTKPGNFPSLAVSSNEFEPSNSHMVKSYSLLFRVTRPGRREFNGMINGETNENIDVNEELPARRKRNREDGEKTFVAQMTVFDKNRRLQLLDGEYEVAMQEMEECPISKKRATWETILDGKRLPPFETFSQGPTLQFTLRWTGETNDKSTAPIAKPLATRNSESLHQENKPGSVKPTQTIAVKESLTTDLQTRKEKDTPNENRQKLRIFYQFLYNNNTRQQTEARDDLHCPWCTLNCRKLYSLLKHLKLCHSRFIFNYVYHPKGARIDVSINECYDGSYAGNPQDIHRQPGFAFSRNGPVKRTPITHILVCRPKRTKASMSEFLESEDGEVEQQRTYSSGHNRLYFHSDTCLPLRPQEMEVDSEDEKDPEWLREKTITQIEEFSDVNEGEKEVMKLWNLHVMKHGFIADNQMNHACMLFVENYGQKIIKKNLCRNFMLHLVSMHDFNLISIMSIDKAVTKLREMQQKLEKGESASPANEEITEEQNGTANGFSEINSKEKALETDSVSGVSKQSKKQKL
rPRC2, sequence (Q16576 whole entry partner): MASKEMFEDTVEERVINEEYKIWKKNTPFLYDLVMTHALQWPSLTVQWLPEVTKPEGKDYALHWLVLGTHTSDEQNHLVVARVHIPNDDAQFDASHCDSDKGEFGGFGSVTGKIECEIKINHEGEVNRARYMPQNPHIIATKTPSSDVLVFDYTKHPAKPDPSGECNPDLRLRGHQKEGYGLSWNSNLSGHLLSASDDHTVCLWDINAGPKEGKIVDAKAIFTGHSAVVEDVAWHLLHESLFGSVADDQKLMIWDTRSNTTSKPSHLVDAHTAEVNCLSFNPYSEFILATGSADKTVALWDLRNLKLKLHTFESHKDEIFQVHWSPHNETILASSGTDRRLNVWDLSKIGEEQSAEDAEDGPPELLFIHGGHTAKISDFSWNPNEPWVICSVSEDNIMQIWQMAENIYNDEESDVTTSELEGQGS
rPRC2, sequence (Q09028 whole entry partner): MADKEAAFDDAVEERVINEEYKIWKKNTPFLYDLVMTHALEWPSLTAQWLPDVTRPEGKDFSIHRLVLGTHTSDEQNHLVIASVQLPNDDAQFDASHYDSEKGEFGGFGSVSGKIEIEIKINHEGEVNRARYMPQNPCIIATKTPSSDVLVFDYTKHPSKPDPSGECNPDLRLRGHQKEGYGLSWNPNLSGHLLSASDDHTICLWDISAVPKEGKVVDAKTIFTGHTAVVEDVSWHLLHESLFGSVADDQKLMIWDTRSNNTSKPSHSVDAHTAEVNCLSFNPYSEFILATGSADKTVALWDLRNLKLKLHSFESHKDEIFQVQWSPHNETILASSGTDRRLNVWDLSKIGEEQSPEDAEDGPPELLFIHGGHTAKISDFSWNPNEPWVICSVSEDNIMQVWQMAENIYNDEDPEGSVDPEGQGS
From the text: Polycomb repressive complex 2 (PRC2) is a multisubunit methylase complex that includes EZH2 (Enhancer of Zeste Homolog 2), EED, SUZ12, Rbap46, and Rbap48 subunits. Reconstituted PRC2 complexes (MW=600 kDa) were used in vitro assays to determine methylase activity in the presence of novel stimulating agents.
[…] For detection, Streptavidin FlashPlate HTS PLUS were used (High Capacity, 384 well, Perkin Elmer product # SMP410001PK).
A workflow used for high throughput assays was as follows: • 1. Preparation of assay plates using the ECHO® (Labcyte) (240 nl of DMSO or compound per well) • 2. Preparation of Mix I+II; I: 1202×15 μl; II: 1202×15.0 μl (dead volume ˜50 reactions) • Mix I • 6.0 μl 5× HMT buffer • 0.45 μl DTT 0.2M • 1.0 μl rPRC2 • 1.0 μl H3K27me3 peptide • 0.11 μl Bio/Avi-oligonuc. 1:10 • 6.44 μl water • 15.0 μl • Mix II • 1.0 μl ^3H-SAM • 14.0 μl water • 15.0 μl • 3. Adding Mix I to assay plate using the Multidrop (15 μl per well) • 4. Adding Mix II to assay plate using the Multidrop (15 μl per well) • 5. Mix content of wells in the assay plate • 6. Spin plate for 1 min at 400 RPM • 7. Incubate assay plate for 60 min at 30° C. • 8. Quench reaction by adding 30 μl of SAH [1.25 mM] to each well (mix); final conc.=568 μM • 9. […]
Stimulation of rPRC2 methylase activity was determined in the presence of unmodified H3, H3K4me3, H3K9me3, H3K27me3, H3K36me3, H3K79me3, H4K20me3, and H1.4K26me3. […]

stimulation of rPRC2 methylase activity toward Bio/Avi-H3 [1] [fold] | Substance | also measured
4 | Monomethylated H3K27 peptide | 
 | ARTKQTAR[Kme3]STGGKAPRKQLA(-Biotin) [H3K9me3] | stimulation of rPRC2 methylase activity toward oligonucleosomes (relative to unmodified H3) (rPRC2; enzyme 12.15 nM): over 9 fold
 | VKKKAR[Kme2]SAGAAKRKASG(-Biotin) [H1.4K26me3] | stimulation of rPRC2 methylase activity toward oligonucleosomes (in words) (rPRC2): Stimulation
6 | Dimethylated H3K27 peptide | 
